Results published in paper PMC3553496.

Legend:
Assay in all cases: peptide or protein array
[1] = molecular target: Myosin-14 peptide (18-mer) (human)
[2] = molecular target: Drebrin peptide (18-mer) (human)
[3] = molecular target: Leucine-rich repeat flightless-interacting protein 2 peptide (18-mer) (human)
[4] = molecular target: LIM domain only protein 7 peptide (18-mer) (human)
[5] = molecular target: LIM homology domain– and calponin homology domain–containing protein 1 peptide (18-mer) (human)
[6] = molecular target: FH1/FH2 domain–containing protein 3 peptide (18-mer) (human)

- relative binding strength (% of the strongest interaction of this SH3 domain) [1]: 100%
- relative binding strength (% of the strongest interaction of this SH3 domain) [2]: 68%
- relative binding strength (% of the strongest interaction of this SH3 domain) [3]: 65%
- relative binding strength (% of the strongest interaction of this SH3 domain) [4]: 12%
- relative binding strength (% of the strongest interaction of this SH3 domain) [5]: 11%
- relative binding strength (% of the strongest interaction of this SH3 domain) [6]: 53%
Substance: GST-tagged ARHGAP10L SH3 domain (domain or fragment)
